Assay results published in paper PMC8440931, “Physical and Functional Interaction of Mitochondrial Single-Stranded DNA-Binding Protein and the Catalytic Subunit of DNA Polymerase Gamma” (Frontiers in Genetics, 2021).

B1: catalytic subunit of mitochondrial DNA polymerase gamma (Pol γα) (enzyme, human, UniProt P54098 1-1239, looked up)
chain: MSRLLWRKVAGATVGPGPVPAPGRWVSSSVPASDPSDGQRRRQQQQQQQQQQQQQPQQPQVLSSEGGQLRHNPLDIQMLSRGLHEQIFGQGGEMPGEAAVRRSVEHLQKHGLWGQPAVPLPDVELRLPPLYGDNLDQHFRLLAQKQSLPYLEAANLLLQAQLPPKPPAWAWAEGWTRYGPEGEAVPVAIPEERALVFDVEVCLAEGTCPTLAVAISPSAWYSWCSQRLVEERYSWTSQLSPADLIPLEVPTGASSPTQRDWQEQLVVGHNVSFDRAHIREQYLIQGSRMRFLDTMSMHMAISGLSSFQRSLWIAAKQGKHKVQPPTKQGQKSQRKARRGPAISSWDWLDISSVNSLAEVHRLYVGGPPLEKEPRELFVKGTMKDIRENFQDLMQYCAQDVWATHEVFQQQLPLFLERCPHPVTLAGMLEMGVSYLPVNQNWERYLAEAQGTYEELQREMKKSLMDLANDACQLLSGERYKEDPWLWDLEWDLQEFKQKKAKKVKKEPATASKLPIEGAGAPGDPMDQEDLGPCSEEEEFQQDVMARACLQKLKGTTELLPKRPQHLPGHPGWYRKLCPRLDDPAWTPGPSLLSLQMRVTPKLMALTWDGFPLHYSERHGWGYLVPGRRDNLAKLPTGTTLESAGVVCPYRAIESLYRKHCLEQGKQQLMPQEAGLAEEFLLTDNSAIWQTVEELDYLEVEAEAKMENLRAAVPGQPLALTARGGPKDTQPSYHHGNGPYNDVDIPGCWFFKLPHKDGNSCNVGSPFAKDFLPKMEDGTLQAGPGGASGPRALEINKMISFWRNAHKRISSQMVVWLPRSALPRAVIRHPDYDEEGLYGAILPQVVTAGTITRRAVEPTWLTASNARPDRVGSELKAMVQAPPGYTLVGADVDSQELWIAAVLGDAHFAGMHGCTAFGWMTLQGRKSRGTDLHSKTATTVGISREHAKIFNYGRIYGAGQPFAERLLMQFNHRLTQQEAAEKAQQMYAATKGLRWYRLSDEGEWLVRELNLPVDRTEGGWISLQDLRKVQRETARKSQWKKWEVVAERAWKGGTESEMFNKLESIATSDIPRTPVLGCCISRALEPSAVQEEFMTSRVNWVVQSSAVDYLHLMLVAMKWLFEEFAIDGRFCISIHDEVRYLVREEDRYRAALALQITNLLTRCMFAYKLGLNDLPQSVAFFSAVDIDRCLRKEVTMDCKTPSNPTGMERRYGIPQGEALDIYQIIELTKGSLEKRSQPGP
B3: biotinylated mtSSB variant lacking nine residues of loop 2.3 (Δ67-75), BTN-mtSSB_(l2.3) (natural protein, human, UniProt Q04837 17-148, looked up)
chain: ESETTTSLVLERSLNRVHLLGRVGQDPVLRQVEGKNPVTIFSLATNEMWRGDVSQKTTWHRISVFRPGLRDVAYQYVKKGSRIYLEGKIDYGEYMDKNNVRRQATTIIADNIIFLSDQTKEKE
modifications: biotin (conjugated; site not stated)
notes: also called loop 2.3-deficient mtSSB; source: purified recombinant protein; details in the Supplementary Materials

Legend:
Pol γβ (Homo sapiens) = Pol γβ (Homo sapiens) (UniProt Q9UHN1); conditions: cited from earlier work
Sequence of Pol γβ (Homo sapiens) (Q9UHN1 2-485): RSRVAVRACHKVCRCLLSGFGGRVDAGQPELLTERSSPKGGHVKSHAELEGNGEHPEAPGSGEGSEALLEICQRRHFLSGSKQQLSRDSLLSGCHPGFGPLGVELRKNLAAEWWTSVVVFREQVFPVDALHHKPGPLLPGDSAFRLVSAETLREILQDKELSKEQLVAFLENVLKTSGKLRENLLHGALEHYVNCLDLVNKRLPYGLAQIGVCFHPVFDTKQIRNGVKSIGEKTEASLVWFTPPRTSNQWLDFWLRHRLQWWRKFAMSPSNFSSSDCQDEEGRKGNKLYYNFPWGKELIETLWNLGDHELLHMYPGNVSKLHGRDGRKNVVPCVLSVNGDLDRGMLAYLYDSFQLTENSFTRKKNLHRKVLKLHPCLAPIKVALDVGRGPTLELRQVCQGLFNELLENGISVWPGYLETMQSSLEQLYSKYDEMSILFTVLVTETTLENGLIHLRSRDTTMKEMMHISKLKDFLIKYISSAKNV

[1] = target: B3; experiment: cell-based or functional assay
mtSSB (wild type) = target: T1, mtSSB (wild type) (UniProt Q04837 17-148); experiment: BLI; 4 mM Mg2+; equilibrium responses of mass transfer fit, non-1:1 binding; BLI: 50 mM Tris-HCl pH 8.0, 10 mM KCl, 4 mM MgCl2, 0.4 mg/ml BSA, 10 mM DTT, 30 C; conditions: protein: recombinant; chain copies: 4; label: 5'-biotin (immobilized on streptavidin sensor); single strand
T1 sequence: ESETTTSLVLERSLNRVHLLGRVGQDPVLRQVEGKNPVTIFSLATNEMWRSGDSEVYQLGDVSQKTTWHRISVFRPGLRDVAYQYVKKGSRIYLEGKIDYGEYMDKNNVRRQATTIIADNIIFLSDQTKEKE

[2] = target: B1; experiment: BLI; BTN-mtSSB or BTN-mtSSB_(l2.3) (600 nM) saturated on streptavidin sensors; Pol γα as analyte at increasing concentrations; Ac buffer: 50 mM Tris-HCl pH 8.0, 10 mM KCl, 4 mM MgCl2, 0.4 mg/ml BSA, 10 mM DTT; 30°C, 1,000 rpm; 1:1 interaction model; conditions: both partners purified

Pol γα (from UniProt P54098)
Kd (Pol γβ (Homo sapiens)): 20 nM

B1
inhibition of primer extension by Pol γα on primer-template (15/59) DNA (mtSSB displacement assay), mtSSB_(l2.3) at 1:1 (~10%) and three-fold molar ratio to DNA template [1]: ~25%

ATTATGAATTAATTTAATAATTTTTTTTTTTTTTTTTTTT (ssDNA, 5'-biotin) [BTN-ssDNA 40-mer]
Kd (mtSSB (wild type)): 2.3 nM

B2: biotinylated mitochondrial single-stranded DNA-binding protein (BTN-mtSSB), wild type (natural protein, human, UniProt Q04837 17-148, looked up)
chain: ESETTTSLVLERSLNRVHLLGRVGQDPVLRQVEGKNPVTIFSLATNEMWRSGDSEVYQLGDVSQKTTWHRISVFRPGLRDVAYQYVKKGSRIYLEGKIDYGEYMDKNNVRRQATTIIADNIIFLSDQTKEKE
modifications: biotin (conjugated; site not stated)
notes: also called mtSSB4; wild-type mtSSB; source: purified recombinant protein; details in the Supplementary Materials
Kd [2]: 48 nM

B3
Kd [2]: 26 nM
